# Assay results published in the supplement of paper PMC11316812.
# ± gives the standard deviation of the averaged measurements.
# What was measured:
# [1] = tested on: MCF7; experiment: percentage of EdU-negative (G0-arrested) nuclei per well, 72 h; higher = more G0 arrest; conditions: reference: sequence is the full UniProt precursor, the tested protein was the secreted form or ectodomain
# [2] = tested on: hTERT-HMEC; experiment: as above; conditions: reference: sequence is the full UniProt precursor, the tested protein was the secreted form or ectodomain
# [3] = protein concentration 0.03125 µM
# [4] = protein concentration 0.3125 µM
# [5] = protein concentration 0.0225 µM
# [6] = protein concentration 0.0261 µM
# [7] = protein concentration 0.0294675 µM
# [8] = protein concentration 0.294675 µM
# 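Note: secreted proteins added to cultured cells, EdU pulse at the end, nuclei found by Hoechst imaging, EdU status from nuclear versus surrounding ring intensity ratio, PBS as neutral control.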
sequence,measurement,setting,value
MRAPGMRSRPAGPALLLLLLFLGAAESVRRAQPPRRYTPDWPSLDSRPLPAWFDEAKFGVFIHWGVFSVPAWGSEWFWWHWQGEGRPQYQRFMRDNYPPGFSYADFGPQFTARFFHPEEWADLFQAAGAKYVVLTTKHHEGFTNWPSPVSWNWNSKDVGPHRDLVGELGTALRKRNIRYGLYHSLLEWFHPLYLLDKKNGFKTQHFVSAKTMPELYDLVNSYKPDLIWSDGEWECPDTYWNSTNFLSWLYNDSPVKDEVVVNDRWGQNCSCHHGGYYNCEDKFKPQSLPDHKWEMCTSIDKFSWGYRRDMALSDVTEESEIISELVQTVSLGGNYLLNIGPTKDGLIVPIFQERLLAVGKWLSINGEAIYASKPWRVQWEKNTTSVWYTSKGSAVYAIFLHWPENGVLNLESPITTSTTKITMLGIQGDLKWSTDPDKGLFISLPQLPPSAVPAEFAWTIKLTGVK,percentage of EdU-negative,[1]; [3],23.7 ± 2%
same,percentage of EdU-negative,[1]; [4],27.8 ± 1.4%
same,percentage of EdU-negative,[2]; [3],5.35 ± 1.3%
same,percentage of EdU-negative,[2]; [4],6.003 ± 0.042%
MRAPHLHLSAASGARALAKLLPLLMAQLWAAEAALLPQNDTRLDPEAYGSPCARGSQPWQVSLFNGLSFHCAGVLVDQSWVLTAAHCGNKPLWARVGDDHLLLLQGEQLRRTTRSVVHPKYHQGSGPILPRRTDEHDLMLLKLARPVVLGPRVRALQLPYRCAQPGDQCQVAGWGTTAARRVKYNKGLTCSSITILSPKECEVFYPGVVTNNMICAGLDRGQDPCQSDSGGPLVCDETLQGILSWGVYPCGSAQHPAVYTQICKYMSWINKVIRSN,percentage of EdU-negative,[1]; [5],26.7 ± 0.38%
same,percentage of EdU-negative,[1]; protein concentration 0.225 µM,26.9 ± 1.7%
same,percentage of EdU-negative,[2]; [5],3.89 ± 0.14%
same,percentage of EdU-negative,[2]; protein concentration 0.225 µM,6.32 ± 0.7%
MRAPLLPPAPVVLSLLILGSGHYAAGLDLNDTYSGKREPFSGDHSADGFEVTSRSEMSSGSEISPVSEMPSSSEPSSGADYDYSEEYDNEPQIPGYIVDDSVRVEQVVKPPQNKTESENTSDKPKRKKKGGKNGKNRRNRKKKNPCNAEFQNFCIHGECKYIEHLEAVTCKCQQEYFGERCGEKSMKTHSMIDSSLSKIALAAIAAFMSAVILTAVAVITVQLRRQYVRKYEGEAEERKKLRQENGNVHAIA,percentage of EdU-negative,[1]; [6],26.1 ± 0.68%
same,percentage of EdU-negative,[1]; protein concentration 0.261 µM,25.9 ± 1.5%
same,percentage of EdU-negative,[2]; [6],5.2 ± 0.8%
same,percentage of EdU-negative,[2]; protein concentration 0.261 µM,5.0893 ± 0.0048%
MRARPRPRPLWATVLALGALAGVGVGGPNICTTRGVSSCQQCLAVSPMCAWCSDEALPLGSPRCDLKENLLKDNCAPESIEFPVSEARVLEDRPLSDKGSGDSSQVTQVSPQRIALRLRPDDSKNFSIQVRQVEDYPVDIYYLMDLSYSMKDDLWSIQNLGTKLATQMRKLTSNLRIGFGAFVDKPVSPYMYISPPEALENPCYDMKTTCLPMFGYKHVLTLTDQVTRFNEEVKKQSVSRNRDAPEGGFDAIMQATVCDEKIGWRNDASHLLVFTTDAKTHIALDGRLAGIVQPNDGQCHVGSDNHYSASTTMDYPSLGLMTEKLSQKNINLIFAVTENVVNLYQNYSELIPGTTVGVLSMDSSNVLQLIVDAYGKIRSKVELEVRDLPEELSLSFNATCLNNEVIPGLKSCMGLKIGDTVSFSIEAKVRGCPQEKEKSFTIKPVGFKDSLIVQVTFDCDCACQAQAEPNSHRCNNGNGTFECGVCRCGPGWLGSQCECSEEDYRPSQQDECSPREGQPVCSQRGECLCGQCVCHSSDFGKITGKYCECDDFSCVRYKGEMCSGHGQCSCGDCLCDSDWTGYYCNCTTRTDTCMSSNGLLCSGRGKCECGSCVCIQPGSYGDTCEKCPTCPDACTFKKECVECKKFDRGALHDENTCNRYCRDEIESVKELKDTGKDAVNCTYKNEDDCVVRFQYYEDSSGKSILYVVEEPECPKGPDILVVLLSVMGAILLIGLAALLIWKLLITIHDRKEFAKFEEERARAKWDTANNPLYKEATSTFTNITYRGT,percentage of EdU-negative,[1]; protein concentration 0.009 µM,26.2 ± 0.6%
same,percentage of EdU-negative,[1]; protein concentration 0.09 µM,27.7 ± 1.2%
same,percentage of EdU-negative,[2]; protein concentration 0.009 µM,4.78 ± 0.31%
same,percentage of EdU-negative,[2]; protein concentration 0.09 µM,16.9 ± 4.2%
MRARRGLLRLPRRSLLAALFFFSLSSSLLYFVYVAPGIVNTYLFMMQAQGILIRDNVRTIGAQVYEQVLRSAYAKRNSSVNDSDYPLDLNHSETFLQTTTFLPEDFTYFANHTCPERLPSMKGPIDINMSEIGMDYIHELFSKDPTIKLGGHWKPSDCMPRWKVAILIPFRNRHEHLPVLFRHLLPMLQRQRLQFAFYVVEQVGTQPFNRAMLFNVGFQEAMKDLDWDCLIFHDVDHIPESDRNYYGCGQMPRHFATKLDKYMYLLPYTEFFGGVSGLTVEQFRKINGFPNAFWGWGGEDDDLWNRVQNAGYSVSRPEGDTGKYKSIPHHHRGEVQFLGRYALLRKSKERQGLDGLNNLNYFANITYDALYKNITVNLTPELAQVNEY,percentage of EdU-negative,[1]; protein concentration 0.016 µM,24.5 ± 0.93%
same,percentage of EdU-negative,[1]; protein concentration 0.16 µM,30.8 ± 1.6%
same,percentage of EdU-negative,[2]; protein concentration 0.016 µM,5.58 ± 0.37%
same,percentage of EdU-negative,[2]; protein concentration 0.16 µM,20.8 ± 1.2%
MRAWIFFLLCLAGRALAAPQQEALPDETEVVEETVAEVTEVSVGANPVQVEVGEFDDGAEETEEEVVAENPCQNHHCKHGKVCELDENNTPMCVCQDPTSCPAPIGEFEKVCSNDNKTFDSSCHFFATKCTLEGTKKGHKLHLDYIGPCKYIPPCLDSELTEFPLRMRDWLKNVLVTLYERDEDNNLLTEKQKLRVKKIHENEKRLEAGDHPVELLARDFEKNYNMYIFPVHWQFGQLDQHPIDGYLSHTELAPLRAPLIPMEHCTTRFFETCDLDNDKYIALDEWAGCFGIKQKDIDKDLVI,percentage of EdU-negative,[1]; [7],26.73 ± 0.018%
same,percentage of EdU-negative,[1]; [8],24.8 ± 0.39%
same,percentage of EdU-negative,[2]; [7],4.83 ± 0.18%
same,percentage of EdU-negative,[2]; [8],5.23 ± 0.79%
